This is an account of results in US20200157212A1 (Pfizer, published 2020).

In this experiment the target is T1, Terbium (Tb) labeled-SNAP tagged ROBO2 expressed on HEK293 cells (Homo sapiens (Human), UniProt Q9HCK4 22-1378, terbium label on the SNAP tag).
T1 construct: also called Tb-labeled ROBO2 cells; ROBO2 expressing cells; not shown: SNAP tag
T1 sequence: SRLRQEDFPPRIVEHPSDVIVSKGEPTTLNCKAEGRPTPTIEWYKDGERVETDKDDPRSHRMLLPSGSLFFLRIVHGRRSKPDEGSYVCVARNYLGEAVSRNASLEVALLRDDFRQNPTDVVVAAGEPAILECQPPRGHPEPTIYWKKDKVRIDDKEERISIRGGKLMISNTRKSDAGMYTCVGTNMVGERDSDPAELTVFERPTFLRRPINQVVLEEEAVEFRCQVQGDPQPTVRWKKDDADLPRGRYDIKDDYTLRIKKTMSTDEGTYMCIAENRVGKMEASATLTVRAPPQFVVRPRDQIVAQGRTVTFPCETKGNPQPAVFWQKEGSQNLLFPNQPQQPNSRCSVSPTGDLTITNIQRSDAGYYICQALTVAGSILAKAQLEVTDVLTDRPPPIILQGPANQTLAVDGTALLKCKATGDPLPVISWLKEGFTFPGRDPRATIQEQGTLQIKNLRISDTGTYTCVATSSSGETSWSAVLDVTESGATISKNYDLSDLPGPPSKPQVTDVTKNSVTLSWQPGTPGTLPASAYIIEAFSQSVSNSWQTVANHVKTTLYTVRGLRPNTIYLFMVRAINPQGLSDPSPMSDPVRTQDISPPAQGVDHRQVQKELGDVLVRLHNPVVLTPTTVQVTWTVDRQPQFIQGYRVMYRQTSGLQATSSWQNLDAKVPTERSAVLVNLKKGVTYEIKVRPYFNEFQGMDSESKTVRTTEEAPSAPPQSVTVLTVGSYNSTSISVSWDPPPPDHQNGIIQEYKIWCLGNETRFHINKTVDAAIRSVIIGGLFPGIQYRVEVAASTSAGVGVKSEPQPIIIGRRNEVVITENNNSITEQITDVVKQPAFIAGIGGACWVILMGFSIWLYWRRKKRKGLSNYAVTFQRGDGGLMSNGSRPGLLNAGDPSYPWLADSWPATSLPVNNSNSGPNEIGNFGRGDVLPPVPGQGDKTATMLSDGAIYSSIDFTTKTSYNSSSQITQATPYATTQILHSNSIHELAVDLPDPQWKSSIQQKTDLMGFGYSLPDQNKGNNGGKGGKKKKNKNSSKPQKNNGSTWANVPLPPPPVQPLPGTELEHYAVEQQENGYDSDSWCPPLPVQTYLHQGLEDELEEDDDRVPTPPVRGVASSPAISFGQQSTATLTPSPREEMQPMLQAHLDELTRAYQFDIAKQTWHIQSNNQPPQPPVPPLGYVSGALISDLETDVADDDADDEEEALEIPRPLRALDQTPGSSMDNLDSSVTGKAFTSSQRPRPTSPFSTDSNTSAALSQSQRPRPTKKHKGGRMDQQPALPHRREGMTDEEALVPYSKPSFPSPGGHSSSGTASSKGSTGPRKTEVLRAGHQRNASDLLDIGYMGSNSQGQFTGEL
Description: HTRF, 5 nM d2-SLIT2-N on Tb-SNAP-ROBO2 HEK293 cells, no antibody (maximal signal). The method, then:
In this assay, terbium (Tb) labeled-SNAP tagged ROBO2 expressing HEK293 cells were incubated with 5 nM d2-labeled SLIT-2N in the presence of 1 nM anti-ROBO2 antibodies for 1 hour. After incubation, fluorescence at 665 nm and 620 nm was measured on an Envision multilabel plate reader. […] Maximal signal was defined as the HTRF ratio of Tb-labeled ROBO2 cells with d2-labeled SLIT2-N in the absence of antibody, the minimum signal was defined as the HTRF ratio of Tb-labeled ROBO2 expressing HEK293 cells only. One nanomolar (nM) parental antibody, 93H2, was unable to block the HTRF assay, therefore this concentration was selected to identify clones with a higher affinity than 93H2 (Table 2, HTRF Ratio column). […] Antibodies derived from chain (Abcs series) or CDR shuffling (CTIR-2 series) were evaluated in 11-point, 5-fold dilution series with a top concentration of 1500 nM (Table 2 HTRF IC₅₀).
HTRF assays were run with 5 nM d2-labeled SLIT2-N and antibodies were added at 1 nM. […] Antibodies derived from chain (Abcs series) or CDR shuffling (CTIR-2 series) were evaluated in 11-point, 5-fold dilution series with a top concentration of 1500 nM, N.T. = not tested; ^cFold selectivity was calculated as Geometric Mean Fluorescent Intensity (Geo MFI) of ROBO2/Geo MFI of ROBO1 binding.
(Time-resolved FRET reads energy transfer from a long-lived donor to a nearby acceptor.)

B1: SLIT2-N (ligand)
chain: QCSCSGSTVDCHGLALRSVPRNIPRNTERLDLNGNNITRITKTDFAGLRHLRVLQLMENKISTIERGAFQDLKELERLRLNRNHLQLFPELLFLGTAKLYRLDLSENQIQAIPRKAFRGAVDIKNLQLDYNQISCIEDGAFRALRDLEVLTLNNNNITRLSVASFNHMPKLRTFRLHSNNLYCDCHLAWLSDWLRQRPRVGLYTQCMGPSHLRGHNVAEVQKREFVCSGHQSFMAPSCSVLHCPAACTCSNNIVDCRGKGLTEIPTNLPETITEIRLEQNTIKVIPPGAFSPYKKLRRIDLSNNQISELAPDAFQGLRSLNSLVLYGNKITELPKSLFEGLFSLQLLLLNANKINCLRVDAFQDLHNLNLLSLYDNKLQTIAKGTFSPLRAIQTMHLAQNPFICDCHLKWLADYLHTNPIETSGARCTSPRRLANKRIGQIKSKKFRCSAKEQYFIPGTEDYRSKLSGDCFADLACPEKCRCEGTTVDCSNQKLNKIPEHIPQYTAELRLNNNEFTVLEATGIFKKLPQLRKINFSNNKITDIEEGAFEGASGVNEILLTSNRLENVQHKMFKGLESLKTLMLRSNRITCVGNDSFIGLSSVRLLSLYDNQITTVAPGAFDTLHSLSTLNLLANPFNCNCYLAWLGEWLRKKRIVTGNPRCQKPYFLKEIPIQDVAIQDFTCDDGNDDNSCSPLSRCPTECTCLDTVVRCSNKGLKVLPKGIPRDVTELYLDGNQFTLVPKELSNYKHLTLIDLSNNRISTLSNQSFSNMTQLLTLILSYNRLRCIPPRTFDGLKSLRLLSLHGNDISVVPEGAFNDLSALSHLAIGANPLYCDCNMQWLSDWVKSEYKEPGIARCAGPGEMADKLLLTTPSKKFTCQGPVDVNILAKCNPCLSNPCKNDGTCNSDPVDFYRCTCPYGFKGQDCDVPIHACISNPCKHGGTCHLKEGEEDGFWCICADGFEGENCEVNVDDCEDNDCENNSTCVDGINNYTCLCPPEYTGELCEEKLDFCAQDLNPCQHDSKCILTPKGFKCDCTPGYVGEHCDIDFDDCQDNKCKNGAHCTDAVNGYTCICPEGYSGLFCEFSPPMVLPRTSPCDNFDCQ
modifications: d2 label in the HTRF assay
notes: also called d2-labeled SLIT2-N
Consider B1, for which the “HTRF Ratio” value was 11900.
